{
  "source": "a protein production outcome set (Wang et al. 2014)",
  "data": [
    {"assay": "label from the status in PepcDB records", "values": [
      {"sequence": "MPVDLQALYPRLIHLMLDTVFVVDRDNQIVFVSDACKTLLGYEACELIGTPITRYMHPDDLAATRASIMRVMNGQPHYDFCNRYLRKDGSVVHILWAACWSEEAQARIGVARDVTAQRKAEDELRFLAHHDPLTRLANRAMFNERLDTALAAARRHNRRLALLFLDINDFKQINDNHGHSVGDRVLCTLARRLERCVGAAGTVARMGGDEFTVLLPDCPSPEAIATHVQHILAVMAEPLDAEFAGIDAPSCSIGVARFPEDGNDADMLLRHADGHMYRIKRQRAATG", "protein production": "failed"},
      {"sequence": "MPVIHCNKDDSQEASSQTPFLPLGFVFTKLYICLTIYSGGDDESMDGDINKYLVLAIIGVGGLSGLVASQSTGRNFPPATANKTVGR", "protein production": "failed"},
      {"sequence": "MPVKLATALSNNLFPALDSQLRAGRHIGIEELENHVFLMDFQEVLEEFYSRYNVELIRAPEGFFYLRPRSTTLIPRSVLSELDMMVGKILCYLYLSPERLAHEGIFSQQELYEELLSLADESKLLKLVNQRSTGSDLDRQKLQEKVRTSLNRLRRLGMIYFMGNDSSKFRITESVFRFGADVRSGDDAREAQLRMIRDGEAMPVEGSLSLKDDSDDNDRTDDTAPETGEDELEHHHHHH", "protein production": "failed"},
      {"sequence": "MPVLVASDLDRTLIYSAAALGLTMPDLRAPRLLCVEVYESKPLSYLTETAAQLLTDLGDSALFVPTTTRTRKQYQRINLPGPAPKYAICANGGHLLVDGVSDPGWHARVTARLADECASLAEVRDHLTNTADPLWVRKHRVAEDLFAYLVVERDLLPQDWVKELAVWAENRGWTVSLQGRKIYAVPKPLTKSAAMHEVARRTGAELTLAAGDSLLDADLLLAADRGWRPGHGELADSGWTAPTISALPERGVLAGERILREFLRAVRPAR", "protein production": "failed"},
      {"sequence": "MPVNQYQQEVGETLEHFAVGQMPDVKFLEGRYCSVEHIDARKHLNDIIDFYWKNAVPSDWTYMFDQPFETAEAVQERLQDYEKSENPYFFAIRDKETDKVLGTFSLMRIDPKNRVLEMGRVIYAPALQKTSAATEAQYLVMNYVFENLGYRRYEWKCDHLNQSSGNAAKRLGFTYEGTFRKHVVYKGRTRDTDWFSVIDQDWPKLKKRFENWLSPKNFDKTGQQIKALKDC", "protein production": "failed"},
      {"sequence": "MPVQNRIHKGINMNSYAHLNVEKRGHTAVVTIDNPPANTWNRASLTALKQLVADLNADRDIYALVITGQGEKFFSAGADLNLFADGDKKVATEMTLLFGEAFEALSAFRGVSIAAINGYAMGGGLECALACDIRIAEEQAQMALPEAGVGLLPCAGGTQNLPWLVGEGWAKRMILCGERVNAATAERIGLVEQVVAKGEALAAALKLAEGVARQSPSSVGVCKQLVQAARTQPPAWNLIKEREAFIKLFDTQDQAEGTRAFLEKRAPNWKNA", "protein production": "failed"},
      {"sequence": "MPVQTYPVDIVIRAYDRPGLLRDVSQVLLNEKINVLAVNTRSNKEDNTALMSLTIEIPGLDALGRLLGRISQLPNIIETRRNRTPLEHHHHHH", "protein production": "failed"},
      {"sequence": "MPVRASIEPLTWENAFFGVNSAIVRITSEAPLLTPDALAPWSRVQAKIAASNTGELDALQQLGFSLVEGEVDLALPVNNVSDSGAVVAQETDIPALRQLASAAFAQSRFRAPWYAPDASGRFYAQWIENAVRGTFDHQCLILRAASGDIRGYVSLRELNATDARIGLLAGRGAGAELMQTALNWAYARGKTTLRVATQMGNTAALKRYIQSGANVESTAYWLYR", "protein production": "not failed"},
      {"sequence": "MPVTDVKHDLDTLTLTITAEFAAPVTRIWQIYADPRQLEKVWGPPSHPATVVDHDLRPGGRVTYFMTGPDGEKYAGYWEITAVDEPHSFSFLDGFADEDFNPNTDLPVSTNVYTFTEHDGGTRATYVGTYASAEALQQVLDMGVIEGASSAINQIDALLTA", "protein production": "failed"},
      {"sequence": "MPVTEKDLAEDAPWKKIQQNTFTRWCNEHLKCVNKRIGNLQTDLSDGLRLIALLEVLSQKRMYRKYHQRPTFRQMQLENVSVALEFLDRESIKLVSIDSKAIVDGNLKLILGLVWTLILHYSISMPVWEDEGDDDAKKQTPKQRLLGWIQNKIPYLPITNFNQNWQDGKALGALVDSCAPGLCPDWESWDPQKPVDNAREAMQQADDWLGVPQVITPEEIIHPDVDEHSVMTYLSQF", "protein production": "failed"},
      {"sequence": "MPYKLTLEACTKCGTCAEACTMYLGSGRKKIYSPVYRSDMLRKIYKKHFTLTGKLFGPLIGAKDPTEDDINALAESAYRCTVCRRCALACPFGLDNGLITRETRKIFADLGILEHHHHHH", "protein production": "not failed"},
      {"sequence": "MPYLPEVIIILVLIALNGIFAMSEFALVSAKKIRLRQKAEKGDAGAETALKLSNEPTAFLSTVQIGITLVGIFAGAFGGATIAGELDTYLRDFPALARYSATLSITLVVLIITYLTLILGELVPKQLALNNAETIASRVAKPMFFLSLMARPLVLVLSYSTDAVLRLLRVRKIIGPPVTEEEIKIMIEEGTEAGVFERAEMSMIEGVFDIGDRRVESLMTHRSDIIALDLDDPVDENLKKMIASGRSNFPVYERDLDDVIGIVSVKDVLAKLVESGKVDIRASVTKPLFAPEAITILKLLESFKETGMHIALITDEYGSVQGIITLHDILEAIVGDVRSLGEPEEEQITVLENGSWLIDGDTPVNKLKYVLSVDSFPGEEQGYYLTIAGLIMYILQRIPKTGDHMEFNGLRYEVVDMDGIRIDKVMVTKVPEISKD", "protein production": "not failed"},
      {"sequence": "MQAGSMSAPKQLVIIGAGEFAQIACEYFQHDSHYTVVAFSVERDFLLQHTLAELPVVAYEELEQRYPPEQYEVFVAIPATRLNRLRTRFFQDVVQRGYRCATYVSSRAFVWHNAQIGANCFIFEGNVIQPFTRIGDNCVLWSGNHIGHRTAVRDHVFIASHAVISGYCEIGQGSFIGVNATLSDKVHIAANNIIGAGALVTRHTEAERVYVGSPARAVAGRSSFDVEL", "protein production": "failed"},
      {"sequence": "MQAKLRLWLTFCVVTPVLLLFGNAGLAEQTPAPKVLKPVTSKAVGVTPRGQVLSLSCSSCHGTDGKSVGIMPSFYGKTPQYIETALLEFKSGKRYSTVMGRHAKGYSDDEIHLIAQYCGIKGQKTK", "protein production": "failed"},
      {"sequence": "MQAMTERLEAMLAQGTDNMLLRFTLGKTYAEHEQFDAALPHLRAALDFDPTYSVAWKWLGKTLQGQGDRAGARQAWESGLAAAQSRGDQQVVKELQVFLRRLAREDALEHHHHHH", "protein production": "not failed"},
      {"sequence": "MQARLSGTSIGLTGPAATKLVRLSRAIEWMSTIGIVLIVGLIGAVFLVPSWTRNLLLTKLGEIGTRLPLDAGNQALAAVIITVPVAVMLWGLVNVRALFAEFARGQVFTTTAATYLQRFGIAVLAQGLLGPVTATALALALSLSNPPGQRLLVLTFSSNDYVSVIVGGVLVAVAAVMREAARLADENASFV", "protein production": "failed"},
      {"sequence": "MQARWIGNMMFHVRTDSNHDVLMDTKEEVGGKDAAPRPLELVLTGLMGCTGMDVVSILRKMKVIDQMKDFRIEIEYERTEEHPRIFTKVHLKYIFKFDGEPPKDKVEKAVQLSQEKYCSVSAILKCSSKVTYEIVYEN", "protein production": "not failed"},
      {"sequence": "MQASENSHDDFLFIDDSDEDEILAFGSNETWQVLIVDDDPEIHSVTQLALSDLVVLGRRLEYLHAYSGKDACQLIENNDDIVLVLLDVVMETDDAGLNVVKYIRETLQRKDIRIVLRTGQPGYAPEESVIKEYDINDYKTKTELTRRKLVTTVFAAIRSFQQIATVNENRQGLEKIVSGATELSSQHSLPTFSQSVLSQLRTLISDDISAVFCARGQGIIDNIDDLSFYVLAQIGFDDSLLNQKIDTLQDNQANKQVKACFLQQKHQYLDDSLDLYVAKGDYRAVIHVRLSSPLTEIQTQLLNVFLTGVAVGYENVHLFQKLTNAAYRDWLTNLPNRLEFVRLLDSFAQNDCKNTVAALIDINHFSDINDALGQDIGNKLLSAVGQRIQSIGSDCQLARVGADVFGIIGPADCLTPESLIALFHQPFAAGEQHLPINACFGLCTKEHAQSSGVQVLNQINIALNIAKKNRLEHFAYYHSDIEDQMQWRLNMIRQLRNDFGNNCLELWYQPQLSLTTGKVIGAEALLRWRTADGKFVSPAVFIPLAEYSGLIIEIGDWVISQACKQLKVLEENFSDLSISVNVSIPQFRQDNFVDNIINTMTQYGIKPNKLELEITENILMDEPQIIIDALTKLKAQGISIALDDFGTGFSSLSYLQKLPLNRLKVDRAFVTDINKEGQSVIAETIINLGKKMQLKVIAEGIEEIEQQERLIELGCDEVQGFYYAKPMPADEFINFLHQQS", "protein production": "failed"},
      {"sequence": "MQATMTDKNTRELLLDAATTLFAEQGIAATTMAEIAASVGVNPAMIHYYFKTRDSLLDTIIEERIGRIIDMIWEPVTGEEDDPLIMVRDLVNRIVNTCETMLWLPSLWIREIVNEGGALREKMLNNIPIDKMNKFSAKIAEGQKQGVINSGIDSRLLIGSIIGLTMLPLATAKLRDQIPTMKGLSSEDIVCHVTALLFTGLTNPSNSDDIKKQRT", "protein production": "not failed"},
      {"sequence": "MQATTATPHDIVFLFDCDNTLLDNDHVLADLRAHMMREFGAQNSARYWEIFETLRTELGYADYLGALQRYRLEQPRDTRLLLMSSFLIDYPFASRVYPGALNALRHLGARGPTVILSDGDVVFQPRKIARSGLWDEVEGRVLIYIHKELMLDQVMECYPARHYVMVDDKLRILAAMKKAWGARLTTVFPRQGHYAFDPKEISSHPPADVTVERIGDLVEMDAEWLLAEKR", "protein production": "not failed"},
      {"sequence": "MQAVLTAALPVFALILTGWLAARWRVLGPSATDALNRYVVYLSLPALLFRAMAQADLRQLADYWGFTAAVAGGIALTFGAAILACRRDGARLTDLSLEGLATSYGNAGYMGIPLCLALLGPASLAPAIITTLLTACVLFGVAIALIEFDQHRDRHWSATLLKVARALLRNPLLAAPLLGLACAAAGITLPAGLDNYAALLGASASPCALVTIGLFLAQSQPGGDRGTVGLMVDGKLLLHPAVTAVLAFAVFDMPPLWAWCAVLMAALPIGTGPFMLAQLYGRDARPSSRAILLSTVLSVPTITALVAWIGRQPLG", "protein production": "failed"},
      {"sequence": "MQDKNFDKLAQKFAKNIYGTPKGEIRAAVLWRDLAPALAQFGDKKLRILDAGGGFGYFSQKLARLGHEVVLCDISAEMLAQAKEQIDASDTPLAIRLVHAPIQALSITEHGMFDLILCHAVVEWLADAKTTMEGLLTMLKPNGLFSLMFYNKEAMRFHALVSGNFDYVAADLKVKKKVRLTPTHPLYIHEVKLWFAQWQMALLKESGVRVIHDYLKKQQAADFDYQKLLSMELEYSQREPYISLGRYVHFLGLEHHHHHH", "protein production": "failed"},
      {"sequence": "MQDSLGIMIKKANNALARDSDHYAKSLGLTGMQISTINFIANNEQHHDLFQRDLELEFNIRKATCSSLVSKMEAADLLIRVPAKDDGRYKRLLLTPKARQLATKIERFFETSEQRMATILGVNTAETYEALRQIAVAFSTPTHAPENWY", "protein production": "failed"},
      {"sequence": "MQDWWEADNRLADWLSMILIQRTIEKNAKQALANLGPHLDLESLIGMDMATLEEYIYPAGFYKQKSIYIKALIKWFHGHGASLDKFQTYSTEDLRKELLGIKGVGEETADAMLLYIFERNVFIADLEHHHHHH", "protein production": "failed"},
      {"sequence": "MQEKGFKEGVKASLPTALGYVSIGLACGVVGANSGLTPFQMGLMSLLVYAGSAQFVMCAMFVAGADLFSIVMTVFLINLRNFLMSLHATTIFTKSSLWQTICIGTLITDESYGVLLNEHVHHKNISTAWMHGNNITGYIAWLFAVILGTALGSVIPNPETLGLDFALIAMFVSIFESQLAAMMQFVKLKKIGLILLAVTLSYFLLVIVISESLAVLLSTLIGCFAGVLLDVR", "protein production": "failed"},
      {"sequence": "MQEKPAATGKADESAASKELLKLLRKAVAAVSGEDGWASLSNLGSHISKIRPSFDSRNYGYSKLSTLVKNLDIFETRMVPSADKLHTDVFLRLKDGKLEHHHHHH", "protein production": "failed"},
      {"sequence": "MQENPSSSPFERRMESYQTQDSNDLHQLWRPREEDLEKLYRVPLGLTNEQLVEKLQLFSGEGEEKTLFVWVNRDLLGYRFLFWLTGMVLKEKQDGDVEHANKLEIIRDWVIESVVKIDRFLVRRVKQAEEKLKSLIQDYDSFKTSPEKKLLQITGQSEMDFVCLWVVVYTAVIAWKLRAAQTESSATHPSSIVVSECRHLLEQKDVFQRKTPKGLKLVAQLFDRSIEELNPRLKTLGDTDIREIGRLMTILELLPADPYRLLCRIACNLYDGAILLQYGVENYQIGSVRFGLDPYSFDSESKIPKLNNPFITIGK", "protein production": "failed"}
    ]}
  ]
}
